The values that follow come from US20250084155A1 (University of Texas, published 2025).

Test [1] has as its target T1, HSP70 (human HSP70; the antigen of the binning, humanization and variant binding assays) (human, UniProt P0DMV8 1-641, limits assumed).
T1 construct: also called hu HSP70
The test is described as follows: BLI, antibody on sensor. How it is done: Humanized variants were characterized for binding using biolayer interferometry (BLI). Chimeric antibodies including the murine 77A antigen binding region and human Fe regions were also tested. Antibodies and reagents were diluted out onto microwell plates and loaded into the instrument. Diluted antibodies were first immobilized onto dip-and-read sensors, and then measurements for baselines were acquired. Subsequently, the sensors were dipped into wells containing the antigen in solution, or buffer alone. The change in number of molecules bound to the sensor was quantified by measurement of the shift in the interference pattern of light during each step of the protocol. Mathematical modeling was performed based on those values and the concentrations of reagents used in the assay and used to calculate kinetics values.
(BLI is a label-free optical method that tracks binding on a fibre tip over time.)

The target in test [2] is T1, HSP70 (human HSP70; the antigen of the …). As to the kind of experiment: BLI, anti-human Fc capture, antigen 100 nM. In outline: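 Antibody variants captured on anti-human Fc biosensors at […]; antigen at 100 nM flowed over, 25° C. Captured antigen recorded at 610 s (start of dissociation) and 1495 s (end of dissociation), giving % dissociation.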

Residue numbers refer to the chain shown, from its start.

T1 sequence (P0DMV8 whole entry, change not shown): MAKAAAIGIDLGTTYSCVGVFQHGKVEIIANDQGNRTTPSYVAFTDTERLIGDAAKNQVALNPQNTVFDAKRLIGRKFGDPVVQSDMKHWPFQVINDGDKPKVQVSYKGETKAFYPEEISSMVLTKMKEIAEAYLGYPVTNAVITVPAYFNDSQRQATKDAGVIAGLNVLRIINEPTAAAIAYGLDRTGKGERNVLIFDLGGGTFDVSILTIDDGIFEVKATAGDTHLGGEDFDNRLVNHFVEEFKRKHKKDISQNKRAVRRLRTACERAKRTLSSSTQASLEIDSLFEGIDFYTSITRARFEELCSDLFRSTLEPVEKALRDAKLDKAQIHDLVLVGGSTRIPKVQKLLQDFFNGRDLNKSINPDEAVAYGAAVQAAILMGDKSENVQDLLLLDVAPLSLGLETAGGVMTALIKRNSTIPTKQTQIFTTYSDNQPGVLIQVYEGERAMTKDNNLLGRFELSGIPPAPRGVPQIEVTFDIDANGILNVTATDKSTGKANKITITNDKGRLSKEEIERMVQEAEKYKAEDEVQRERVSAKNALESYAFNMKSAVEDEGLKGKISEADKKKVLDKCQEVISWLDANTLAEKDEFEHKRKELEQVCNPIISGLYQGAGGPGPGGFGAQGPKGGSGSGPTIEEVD

B1: chimeric 77A with a human IgG1 Fc domain (antibody, V domains shown)
VH: QIQLVQSGPELKKPGETVKISCKASGYTFTNYGMNWVKQAPGKGLKWMGWINTYTGEPTYADDFKGRFAFSLETSATTAYLQINNLKNEDTATYFCARYDHAMDYWGQGTSVTVSS
VL: DIVMSQSPSSLAVSAGEKVTMSCKSSQSLLNSGTRKNYLAWYQQKPGQSPKLLIYWTSTRESGVPDRFTGSGSGTDFTLTINSVQAEDLAVYYCKQSYTLYTFGGGTKLEIK
notes: also called Chimera IgG1; IgG1 Chimera
Usually Kd stands for the concentration at which binding is half-saturated. High values mean a looser complex, low ones a tighter complex. For orientation: koff means the rate constant with which the complex falls apart. Lower therefore signals slow dissociation. The term kon denotes the second-order rate constant of association. Low readings indicate slow association, high ones fast association. Turning to B1, in test [1], binding was characterised by a dissociation constant (Kd) of 1.39 nM, the off-rate (koff) was found to be 9.94e-05 s⁻¹ and the on-rate (kon) came out at 71600 M⁻¹ s⁻¹.

B2: chimeric 77A with a human IgG4 Fc domain (antibody, V domains shown)
VH: B1 VH
VL: B1 VL
notes: also called Chimera IgG4; IgG4 Chimera
Take B2: in test [1], the dissociation constant Kd worked out at 1.81 nM, the koff amounted to 0.000129 s⁻¹ and the on-rate constant (kon) was determined as 71300 M⁻¹ s⁻¹.

B3: chimeric 77A with a human IgG2 Fc domain (antibody, V domains shown)
VH: B1 VH
VL: B1 VL
notes: also called Chimera IgG2; IgG2 Chimera
Consider B3, for which, in test [1], binding was put at a Kd of 1.52 nM, the koff worked out at 0.000112 s⁻¹ and the kon was 73700 M⁻¹ s⁻¹.

B4: h77A-1.86 (antibody, V domains shown)
VH: QIQLVQSGVEVKKPGASVKVSCKASGYTFTNYGMNWVRQAPGQGLEWMGWINTYTGETTYADDFKGRFTFTTDTSTSTAYMELRSLRSDDTAVYFCARYDHAMDYWGQGTLVTVSS
VL: EIVLTQSPDSLAVSLGERATINCKSSQSLFNSGTRKNYLAWYQKKAGQSPKLLIYWTSTRESGVPDRFSGSGSGTDFTLSIDRLQAEDVAVYYCKQSYTLYTFGGGTKVEIK
notes: captured by anti-human Fc
For B4, in test [2], the “% Diss” value was determined as 14.1%.

B5: h77A-25 (antibody, V domains shown)
VH: QIQLVQSGPEVKKPGESVKVSCKASGYTFTNYGMNWVRQAPGKGLEWMGWINTYTGEPTYADDFKGRVTITRDTSASTAYMELSSLRSEDTAVYFCARYDHAMDYWGQGTSVTVSS
VL: B4 VL with E1D, L4M, F30L, K44Q, A46P, S80T, D82S, R83S, V109L
In the case of B5, in test [1], binding was characterised by a dissociation constant (Kd) of 10.6 nM, the koff stood at 0.000503 s⁻¹ and the association rate constant (kon) was found to be 47300 M⁻¹ s⁻¹.

B6: h77A-16 (antibody, V domains shown)
VH: EVQLVESGGGLVKPGGSLRLSCKASGYTFTNYGMNWVRQAPGKGLKWVGWINTYTGEPTYADDFKGRFTFSRDDSKNTLYLQMNSLKTEDTAVYFCARYDHAMDYWGQGTSVTVSS
VL: B4 VL with F30L, K44Q, S80T, R83S
In test [1], B6 yielded a Kd of 10.5 nM, a koff of 0.00046 s⁻¹ and an on-rate (kon) of 44000 M⁻¹ s⁻¹.

B7: h77A-15 (antibody, V domains shown)
VH: QVQLQQSGPEVKKPGASVKISCKTSGYTFTNYGMNWVRQAPGQGLEWMGWINTYTGEPTYADDFKGRVTMTTDTSTSTAYLELTGLMSDDTAVYFCARYDHAMDYWGQGTTVTVSS
VL: B4 VL with E1D, L4M, F30L, K44Q, A46P, S80T, D82S, R83S, V109L
In test [1], B7 returned a Kd of 10.8 nM, an off-rate (koff) of 0.000513 s⁻¹ and a kon of 47600 M⁻¹ s⁻¹.

B8: h77A-4 (antibody, V domains shown)
VH: B4 VH with V9A, T58P
VL: DIQMTQSPSSLSASVGDRVTITCKSSQSLLNSGTRKNYLAWYQQKPGKVPKLLIYWTSTRESGVPSRFSGSGSGTDFTLTISSLQPEDVATYYCKQSYTLYTFGGGTKLEIK
Consider B8, for which, in test [1], the Kd came to 7.66 nM, the off-rate constant (koff) turned out to be 0.000287 s⁻¹ and the association rate constant (kon) amounted to 37400 M⁻¹ s⁻¹.

B9: h77A-7 (antibody, V domains shown)
VH: B4 VH with V9A, A16S, T58P, T72A, T74E, R84S, D89E
VL: DIVMTQSPDSLSVSLGERATINCKSSQSLLNSGTRKNYLAWYQQKPGQPPRLLIYWTSTRESGVPDRFSGSGSGTDFTLTINTLQAEDVAVYYCKQSYTLYTFGQGTKLEIK
With B9, in test [1], the Kd is 10 nM, the off-rate (koff) was determined as 0.000488 s⁻¹ and the kon is 48700 M⁻¹ s⁻¹.

B10: h77A-1.96 (antibody, V domains shown)
VH: B4 VH with V9A, T58P
VL: B9 VL with S12A, P49S, R51K, N82S, T83S
notes: captured by anti-human Fc
Regarding B10, the “% Diss” value in test [2] worked out at 18.8%.

B11: h77A-1.98 (antibody, V domains shown)
VH: B4 VH with V9A, T58P, F70M
VL: B4 VL with F30L, K44Q, S80T, R83S
notes: captured by anti-human Fc
On to B11, for which the “% Diss” value in test [2] was determined as 34.5%.

B12: h77A-9 (antibody, V domains shown)
VH: B4 VH with V9A, A16S, T58P, T72A, T74E, R84S, D89E
VL: B8 VL
In test [1], B12 showed an equilibrium dissociation constant (Kd) of 8.89 nM, an off-rate constant (koff) of 0.000348 s⁻¹ and a kon of 39200 M⁻¹ s⁻¹.

B13: h77A-6 (antibody, V domains shown)
VH: B4 VH with V9A, A16S, T58P, T72A, T74E, R84S, D89E
VL: B4 VL with F30L, K44Q, S80T, R83S
Take B13: in test [1], the affinity, expressed as Kd, was 2.64 nM; the koff worked out at 0.00014 s⁻¹; the on-rate constant (kon) is 53100 M⁻¹ s⁻¹.

B14: h77A-14 (antibody, V domains shown)
VH: B7 VH
VL: B8 VL
B14: in test [1], the Kd is 15 nM, the koff came out at 0.000616 s⁻¹ and the on-rate (kon) amounted to 41100 M⁻¹ s⁻¹.

B15: h77A-1.92 (antibody, V domains shown)
VH: B4 VH with V9A, T28S, T58P, A61G
VL: B4 VL with A12T, S80T, R83S, T99N
notes: captured by anti-human Fc
B15: in test [2], the “% Diss” value worked out at 32.4%.

B16: h77A-5 (antibody, V domains shown)
VH: B4 VH with V9A, T58P
VL: B9 VL with S12A, P49S, R51K, N82S, T83S, Q105G
With B16, in test [1], the Kd came out at 6.87 nM, the koff came to 0.000353 s⁻¹ and the kon stood at 51400 M⁻¹ s⁻¹.

B17: h77A-1.91 (antibody, V domains shown)
VH: B4 VH with Q3H, V9A, T28I, T58P, A79V, A97V
VL: B4 VL with A12S, K44Q, S80T, R83S
notes: captured by anti-human Fc
Turning to B17, in test [2], the “% Diss” value was found to be 30.7%.

B18: h77A-21 (antibody, V domains shown)
VH: B5 VH
VL: B4 VL with F30L, K44Q, S80T, R83S
As to B18, in test [1], the dissociation constant Kd was determined as 13.1 nM, the koff is 0.000545 s⁻¹ and the kon came out at 41700 M⁻¹ s⁻¹.

B19: h77A-2 (antibody, V domains shown)
VH: B4 VH with V9A, T58P
VL: B9 VL
As for B19, in test [1], binding was characterised by a dissociation constant (Kd) of 5.13 nM, the koff was 0.000308 s⁻¹ and the kon was determined as 59900 M⁻¹ s⁻¹.

B20: h77A-3 (antibody, V domains shown)
VH: B4 VH with V9A, T58P
VL: B9 VL with I2V, S12A, A19V, P49S, R51K, N82S, T83S
In test [1], B20 displayed an equilibrium dissociation constant (Kd) of 4.9 nM, a koff of 0.000305 s⁻¹ and an on-rate (kon) of 62300 M⁻¹ s⁻¹.

B21: h77A-11 (antibody, V domains shown)
VH: B7 VH
VL: B4 VL with F30L, K44Q, S80T, R83S
In test [1], B21 had a Kd of 4.23 nM, a koff of 0.000189 s⁻¹ and a kon of 44600 M⁻¹ s⁻¹.

B22: h77A-10 (antibody, V domains shown)
VH: B4 VH with V9A, A16S, T58P, T72A, T74E, R84S, D89E
VL: B9 VL with S12A, P49S, R51K, N82S, T83S, Q105G
B22: in test [1], the Kd was 7.1 nM, the koff came to 0.000409 s⁻¹ and the kon is 57700 M⁻¹ s⁻¹.

B23: h77A-24 (antibody, V domains shown)
VH: B5 VH
VL: B8 VL
In the case of B23, in test [1], the dissociation constant Kd was 9.26 nM, the koff came out at 0.000294 s⁻¹ and the kon worked out at 31800 M⁻¹ s⁻¹.

B24: h77A-1.97 (antibody, V domains shown)
VH: B4 VH with V9A, T58P, F70M
VL: B9 VL with S12A, P49S, R51K, N82S, T83S
notes: captured by anti-human Fc
Consider B24, for which the “% Diss” value in test [2] is 27.2%.

B25: h77A-12 (antibody, V domains shown)
VH: B7 VH
VL: B9 VL
As to B25, in test [1], binding was put at a Kd of 10 nM, the off-rate (koff) was determined as 0.000446 s⁻¹ and the kon is 44500 M⁻¹ s⁻¹.

B26: h77A-22 (antibody, V domains shown)
VH: B5 VH
VL: B9 VL
Turning to B26, in test [1], the equilibrium dissociation constant (Kd) is 8.31 nM, the koff was 0.000302 s⁻¹ and the association rate constant (kon) is 36400 M⁻¹ s⁻¹.

B27: h77A-13 (antibody, V domains shown)
VH: B7 VH
VL: B9 VL with I2V, S12A, A19V, P49S, R51K, N82S, T83S
Consider B27, for which, in test [1], the Kd turned out to be 8.85 nM, the off-rate constant (koff) was determined as 0.000396 s⁻¹ and the kon was 44700 M⁻¹ s⁻¹.

B28: h77A-23 (antibody, V domains shown)
VH: B5 VH
VL: B9 VL with I2V, S12A, A19V, P49S, R51K, N82S, T83S
In test [1], B28 yielded an equilibrium dissociation constant (Kd) of 8.96 nM, a koff of 0.000447 s⁻¹ and a kon of 49900 M⁻¹ s⁻¹.
